Assay results from patent US9109007B2, “MHC-I restricted epitopes containing non-natural amino acid residues” (Purdue Pharma L.P., priority 2010, dated 2015).
Where no end group is shown, it is not given here. [ ]: non-standard residue; d: D form. Gly(cPent) = N[C@H](C(=O)O)C1CCCC1

Target: T1, HLA-A2 (Homo sapiens, UniProt P04439, D140Y/D185E/D98H/E176V/E277Q/G131W/G231S/I119V/I121R/I166T/I218V/L300P/N151K/N90K/P208A/P217A/Q86G/Q94H/R138H/R169H)
T1 construct: Soluble Class I/Plate-Based Assays; purchased Beckman Coulter
Test: iTopia plate-based assay: stability (half-life) of peptide/HLA-A2 complexes
Assay type: binding
Details: for stability of complex with HLA-A2 compared with the corresponding native survivin peptide: Survivin peptide derivatives
Description: II. Soluble Class I/Plate-Based Assays The plate-based assay, named iTopia™, is a commercial assay (Beckman Coulter). The assay is performed in wells of microtiter plates. At the outset of the assay, MHCI complexes (properly folded MI-IC heavy chain, beta 2 microglobulin and a place-holder peptide), are tethered to streptavidin-coated microplate wells. (Proper formation/folding of the MHC complex may be determined by binding of an anti-HLA-ABC antibody). A buffer designed to unfold and dissociate the complex was added to each test well, allowed to incubate, and the place holder peptide and beta 2 microglobulin were washed away. Escalating concentrations of the test peptide, along with additional beta 2 microglobulin, were added to each well and incubated in a buffer designed to promote refolding of complexes. Plates were incubated overnight at 21° C. Properly folded MHCI complex molecules were detected with a fluorescently labeled antibody selected based on its ability to only bind properly folded MHCI complexes. Binding was reported relative to a standardized positive control peptide. Relative affinities were reported as ED50, and are defined herein as the concentration of peptide required to achieve half maximal binding of the positive control. […] Assessment of Peptide/HLA-A0201 Complex Stability. MHCI complexes were dissociated in each test well using stripping buffer, and the place-holder peptide and beta 2 microglobulin were washed away. 100 uM of the test peptide was added to appropriate wells along with additional beta 2 microglobulin and the anti-HLA ABC antibody, and the plates were incubated overnight at 21° C. Plates were washed, and fresh buffer was added to each well. Plates were shifted to 37° C., and the appropriate wells were read at 0, 0.5, 1, 1.5, 2, 4, 6 and 8 hours.

Question: I-[cpg]-TFKNWPF (I[Gly(cPent)]TFKNWPF) was tested. Which “stability of complex with HLA-A2 compared with the corresponding native survivin peptide” value did it give?
Answer: The value was “more stable complex”.

Question: For K-[cpg]-RRAIEQL (K[Gly(cPent)]RRAIEQL), which “increase in the half life of the HLA-A2 peptide complex compared to the native survivin peptide” value (Survivin peptide derivative vs native survivin peptide) is on record?
Answer: Its value is “greater than 20 fold”.

Question: What about the “stability of complex with HLA-A2 compared with the corresponding native survivin peptide” value of the same substance?
Answer: The value was “more stable complex”.
